According to paper PMC2824606:

Molecular target: yHsp90-Y24F, bacterially expressed and purified (N-terminally His6-tagged, pRSETA) (Saccharomyces cerevisiae) (UniProt P02829)
Experiment: ITC

“Aha1 used for the in vitro binding constants (from UniProt Q12449 1-350) (natural protein)” showed a Kd of 1.8 µM.
